This note sets out measurements from IntAct's records for PubMed 23125415.

To fix the notation:
B1: Fractalkine (Homo sapiens), P78423 (parent)
chain: MAPISLSWLLRLATFCHLTVLLAGQHHGVTKCNITCSKMTSKIPVALLIHYQQNQASCGKRAIILETRQHRLFCADPKEQWVKDAMQHLDRQAAALTRNGGTFEKQIGEVKPRTTPAAGGMDESVVLEPEATGESSSLEPTPSSQEAQRALGTSPELPTGVTGSSGTRLPPTPKAQDGGPVGTELFRVPPVSTAATWQSSAPHQPGPSLWAEAKTSEAPSTQDPSTQASTASSPAPEENAPSEGQRVWGQGQSPRPENSLEREEMGPVPAHTDAFQDWGPGSMAHVSVVPVSSEGTPSREPVASGSWTPKAEEPIHATMDPQRLGVLITPVPDAQAATRRQAVGLLAFLGLLFCLGVAMFTYQSLQGCPRKMAGEMAEGLRYIPRSCGSNSYVLVPV

The experiment covers variants of B1. Particulars: with cx3c1_human CX3CR1, P49238.
cx3c1_human CX3CR1, P49238, sequence (P49238 whole entry): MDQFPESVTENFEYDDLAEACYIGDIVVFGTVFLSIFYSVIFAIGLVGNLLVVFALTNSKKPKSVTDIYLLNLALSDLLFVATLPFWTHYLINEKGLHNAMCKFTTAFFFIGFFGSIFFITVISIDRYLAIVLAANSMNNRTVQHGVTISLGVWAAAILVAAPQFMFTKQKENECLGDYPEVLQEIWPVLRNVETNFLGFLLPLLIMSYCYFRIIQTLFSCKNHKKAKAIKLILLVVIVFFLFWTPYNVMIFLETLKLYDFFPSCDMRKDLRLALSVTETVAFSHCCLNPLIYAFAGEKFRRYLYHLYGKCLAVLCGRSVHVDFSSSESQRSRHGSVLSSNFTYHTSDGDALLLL
As for R71A, the “effect of a mutation on the interaction” value is “disrupting interaction strength”.

As for K60A;R61A, the “effect of a mutation on the interaction” value is “with no effect”.
